According to paper PMC10770723 (2023):

Target: T1, recombinant Der p 2 (Dermatophagoides pteronyssinus …, UniProt P49278)
T1 chain: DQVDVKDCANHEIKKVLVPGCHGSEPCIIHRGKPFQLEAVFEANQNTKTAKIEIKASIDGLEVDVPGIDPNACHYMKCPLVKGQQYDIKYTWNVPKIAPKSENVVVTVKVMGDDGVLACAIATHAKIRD
Assay: ELISA (coated rDer p 2, Siglec-Fc binding); Unmodified rDer p 2 does not bind; binding to Siglec-9-Fc requires chemical conjugation of α2-3 sialic acids to rDer p 2 (sia-rDer p 2)

binding result: no binding
B1: Siglec-9–hFc chimera (protein)
chain: QTSKLLTMQSSVTVQEGLCVHVPCSFSYPSHGWIYPGPVVHGYWFREGANTDQDAPVATNNPARAVWEETRDRFHLLGDPHTKNCTLSIRDARRSDAGRYFFRMEKGSIKWNYKHHRLSVNVTALTHRPNILIPGTLESGCPQNLTCSVPWACEQGTPPMISWIGTSVSPLDPSTTRSSVLTLIPQPQDHGTSLTCQVTFPGASVTTNKTVHLNVSYPPQNLTMTVFQGDGTVSTVLGNGSSLSLPEGQSLRLVCAVDAVDSNPPARLSLSWRGLTLCPSQPSNPGVLELPWVHLRDAAEFTCRAQNPLGSQQVYLNVSLQSKATSGVTQG
